Results reported in US20250122311A1 (YEDA RESEARCH AND DEVELOPMENT, published 2025).
Numbering of substitutions follows the chain as printed.

Assays:
[1] = target: T1, recombinant prostate-specific antigen (PSA) (human, UniProt P07288 25-261, limits assumed); assay: ELISA of the protein G purified antibody on recombinant PSA
T1 construct: also called recombinant PSA; recombinantly produced PSA

[2] = target: T1, recombinant prostate-specific antigen …; assay: immunoprecipitation with protein G after incubation with recombinant PSA; blot developed with a commercial anti-PSA antibody
Procedure: (§1) FIGS. 4A-E present anti-PSA clone 10 humanization: FIG. 4A. Four anti-PSA antibodies were expressed as chimeras and expression was measured through ELISA of the supernatant SEQ ID Nos.: 83/84, 85/86, 87/88, 81/82). […] FIG. 4B. Expression of five humanized designs for clone 10 was measured through ELISA of the supernatant. […] FIG. 4C. […] FIG. 4D. […] Membrane was developed with a commercial anti-PSA antibody. […] FIG. 4E.

[3] = target: T2, natively expressed PSA (supernatant of LNCaP cells) (human, UniProt P07288 25-261); assay: immunoprecipitation with protein G after overnight incubation with LNCaP supernatant; blot developed with a commercial anti-PSA antibody
T2 construct: also called native PSA
Procedure: as §1

[4] = target: T3, hen-egg white lysozyme (hen, UniProt P00698 19-147); assay: yeast surface display of scFv, 240 nM lysozyme
T3 construct: also called HEWL

[5] = target: T3, hen-egg white lysozyme; assay: bilayer interferometry, IgG1 loaded on the sensor at 1 ug/mL, lysozyme at 1000, 250, 100, 25 and 10 nM
Procedure: FIGS. 5A-D present anti lysozyme antibody SDR-grafting: FIG. 5A. […] FIG. 5B. […] FIG. 5C. […] FIG. 5D. […] Lysozyme was at concentrations of […] and 1 μg/mL antibody was loaded onto the sensor.

[6] = target: T3, hen-egg white lysozyme; assay: surface plasmon resonance, Fab

T1 sequence (P07288 25-261 limits assumed): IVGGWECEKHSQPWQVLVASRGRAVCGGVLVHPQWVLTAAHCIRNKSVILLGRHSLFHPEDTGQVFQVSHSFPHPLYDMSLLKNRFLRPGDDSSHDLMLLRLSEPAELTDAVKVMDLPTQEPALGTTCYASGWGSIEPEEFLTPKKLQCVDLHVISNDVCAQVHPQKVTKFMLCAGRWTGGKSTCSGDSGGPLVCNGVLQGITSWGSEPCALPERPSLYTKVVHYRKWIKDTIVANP
T3 sequence (P00698 19-147 limits assumed): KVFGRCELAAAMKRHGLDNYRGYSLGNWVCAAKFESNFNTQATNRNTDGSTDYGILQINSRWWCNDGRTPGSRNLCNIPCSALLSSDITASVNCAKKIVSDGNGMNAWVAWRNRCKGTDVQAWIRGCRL
T2 sequence (P07288 25-261 limits assumed): as the sequence (P07288 25-261 limits assumed) above

B1: Anti-PSA Design 1 (humanized clone 10) (antibody, V domains shown)
VH: QVQLVQSGAEVKKPGSSVKVSCKASGYSFTDYNMNWVRQAPGQGLEWIGVISPDYGTPSYAQKFQGRVTITADESTSTAYMELSSLRSEDTAVYYCARGKGNYVVFAYWGQGTLVTVSS
VL: DIQMTQSPSSLSASVGDRVTITCKASQSVVNNVVWYQQKPGKAPKLLIYYASNRYSGVPSRFSGSGSGTDFTLTISSLQPEDFATYYCQQHYTSPLTFGPGTKVDIKR
notes: Full-length human IgG1/kappa chains; also called PSA1
B1: binds [1].

B2: Anti-PSA Design 2 (humanized clone 10) (antibody, V domains shown)
VH: B1 VH
VL: DIVMTQTPLSLSVTPGQPASISCKASQSVVNNVVWYLQKPGQPPQLLIYYASNRYSGVPDRFSGSGSGTDFTLKISRVEAEDVGVYYCQQHYTSPLTFGPGTKVDIKR
notes: Full-length human IgG1/kappa chains; also called PSA2
B2: binds [1].

B3: Anti-PSA Design 4 (humanized clone 10) (antibody, V domains shown)
VH: QVQLQESGPGLVKPSETLSLTCTVSGYSFTDYNMNWIRQPPGKGLEWIGVISPDYGTPSYNPSLKSRVTISVDTSKNQFSLKLSSVTAADTAVYYCARGKGNYVVFAYWGQGTLVTVSS
VL: B1 VL with D70E
notes: Full-length human IgG1/kappa chains; also called PSA4
B3: binds [2]; binds [3].

B4: Anti-PSA Design 3 (humanized clone 10) (antibody, V domains shown)
VH: B1 VH with Q1E, S16A, S17T, V20I, A24V, R38Q, Q43K, Q62E, E74T, S77D
VL: DIVMTQSPDSLAVSLGERATINCKASQSVVNNVVWYQQKPGQPPKLLIYYASNRYSGVPDRFSGSGSGTDFTLTISSLQAEDVAVYYCQQHYTSPLTFGPGTKVDIKR
notes: Full-length human IgG1/kappa chains; also called PSA3
B4: binds [1].

B5: Anti-PSA Design 5 (humanized clone 10) (antibody, V domains shown)
VH: B1 VH with Q1E, S16A, S17T, V20I, A24V, R38Q, Q43K, Q62E, E74T, S77D
VL: B1 VL with D70E
notes: Full-length human IgG1/kappa chains; also called PSA5
B5: binds [2].

B6: Anti-HEWL Design 6, scFv on yeast surface (scFv, V domains shown, not shown: large carriers; small tags and cut ends)
VH: EVQLVQSGAEVKKPGATVKISCKVSGYTFSTYWMEWVQQAPGKGLEWMGEVLPGSGSTYYAEKFQGRVTITADTSTDTAYMELSSLRSEDTAVYYCARGDGYFQHWGQGTLVTVSS
VL: EIVLTQSPDFQSVTPKEKVTITCRASQSISSNLHWYQQKPDQSPKLLIKYASQSFSGVPSRFSGSGSGTDFTLTINSLEAEDAATYYCHQSNSWPRTFGPGTKVDIK
notes: also called Des6 (scFv format)
B6: binds [4].

B7: Anti-HEWL Design 1, human IgG1 (antibody, V domains shown)
VH: B6 VH
VL: DIQMTQSPSSLSASVGDRVTITCRASQSISSNLNWYQQKPGKAPKLLIYYASSLQSGVPSRFSGSGSGTDFTLTISSLQPEDFATYYCQQSNSWPRTFGPGTKVDIKR
notes: also called Des 1; Des1
For B7, the Kd [5] was 11 nM.

B8: Anti-HEWL Design 1, human Fab (Fab, V domains shown)
VH: B6 VH
VL: B7 VL
notes: The Fab heavy chain ends in a His tag; also called hαHEWL; design 1 (Fab)
Work on B8 yielded a Kd [6] of 41.6 nM.
